The values below come from PMC3334620.

Details in all cases: 200 nM
In data set [1] the target is T1, Vhr1 (Saccharomyces cerevisiae) (UniProt P40522).
T1 sequence: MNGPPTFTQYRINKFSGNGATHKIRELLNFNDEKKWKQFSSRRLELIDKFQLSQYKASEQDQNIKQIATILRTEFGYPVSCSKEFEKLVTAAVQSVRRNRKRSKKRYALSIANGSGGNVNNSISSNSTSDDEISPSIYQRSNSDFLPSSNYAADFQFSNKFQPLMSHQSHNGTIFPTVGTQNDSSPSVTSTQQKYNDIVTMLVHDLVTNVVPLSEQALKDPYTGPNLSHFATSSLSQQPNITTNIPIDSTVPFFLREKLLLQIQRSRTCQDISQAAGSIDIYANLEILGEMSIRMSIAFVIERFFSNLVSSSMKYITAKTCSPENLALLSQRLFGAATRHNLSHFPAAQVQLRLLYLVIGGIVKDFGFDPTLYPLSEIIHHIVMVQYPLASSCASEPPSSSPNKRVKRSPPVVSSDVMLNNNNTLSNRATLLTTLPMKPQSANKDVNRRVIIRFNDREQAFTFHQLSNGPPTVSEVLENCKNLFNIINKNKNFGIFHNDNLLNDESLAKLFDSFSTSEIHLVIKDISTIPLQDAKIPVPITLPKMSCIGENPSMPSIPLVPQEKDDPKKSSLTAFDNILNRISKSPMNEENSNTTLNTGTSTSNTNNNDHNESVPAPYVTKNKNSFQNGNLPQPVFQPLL

Data set [2] concerns the target T2, Vhr2 (Saccharomyces cerevisiae) (UniProt P40041).
T2 sequence: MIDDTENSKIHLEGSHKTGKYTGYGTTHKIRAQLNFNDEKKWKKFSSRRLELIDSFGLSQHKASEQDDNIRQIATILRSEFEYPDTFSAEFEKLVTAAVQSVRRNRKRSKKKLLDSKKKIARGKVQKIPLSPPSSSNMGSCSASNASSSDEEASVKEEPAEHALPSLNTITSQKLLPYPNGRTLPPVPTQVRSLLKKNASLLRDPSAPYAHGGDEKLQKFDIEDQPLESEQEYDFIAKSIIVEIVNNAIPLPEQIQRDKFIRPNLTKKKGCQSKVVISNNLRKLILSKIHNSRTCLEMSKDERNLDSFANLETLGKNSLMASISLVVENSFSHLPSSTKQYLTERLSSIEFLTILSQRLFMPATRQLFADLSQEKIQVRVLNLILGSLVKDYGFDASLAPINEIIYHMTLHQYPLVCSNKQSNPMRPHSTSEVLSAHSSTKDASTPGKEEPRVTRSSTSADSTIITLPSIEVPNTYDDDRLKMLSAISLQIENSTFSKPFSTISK

For data set [3], the target named is T3, Ecm22 (Saccharomyces cerevisiae) (UniProt Q05958).
T3 sequence: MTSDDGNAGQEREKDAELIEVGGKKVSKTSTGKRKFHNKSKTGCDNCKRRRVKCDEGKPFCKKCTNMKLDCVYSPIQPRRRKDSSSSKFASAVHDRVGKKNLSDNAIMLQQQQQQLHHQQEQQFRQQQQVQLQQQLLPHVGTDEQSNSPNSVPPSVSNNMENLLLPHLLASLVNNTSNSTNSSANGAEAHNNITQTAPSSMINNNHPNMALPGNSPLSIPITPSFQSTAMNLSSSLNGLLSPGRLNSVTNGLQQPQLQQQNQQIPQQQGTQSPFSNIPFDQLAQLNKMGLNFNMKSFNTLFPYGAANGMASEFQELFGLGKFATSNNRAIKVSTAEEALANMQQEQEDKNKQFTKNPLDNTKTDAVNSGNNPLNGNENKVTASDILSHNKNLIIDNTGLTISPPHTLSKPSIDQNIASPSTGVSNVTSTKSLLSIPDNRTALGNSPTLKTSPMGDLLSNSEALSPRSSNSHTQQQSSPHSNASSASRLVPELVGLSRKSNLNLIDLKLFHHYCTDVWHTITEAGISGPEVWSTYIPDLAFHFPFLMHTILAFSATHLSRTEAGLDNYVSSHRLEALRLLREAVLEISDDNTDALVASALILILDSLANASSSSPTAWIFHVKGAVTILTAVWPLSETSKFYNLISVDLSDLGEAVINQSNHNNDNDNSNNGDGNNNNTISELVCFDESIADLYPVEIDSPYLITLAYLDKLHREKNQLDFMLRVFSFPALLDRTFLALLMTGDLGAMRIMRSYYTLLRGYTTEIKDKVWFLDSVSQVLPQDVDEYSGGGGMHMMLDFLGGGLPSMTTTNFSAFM

The target of data set [4] is T4, Upc2 (Saccharomyces cerevisiae) (UniProt Q12151).
T4 sequence: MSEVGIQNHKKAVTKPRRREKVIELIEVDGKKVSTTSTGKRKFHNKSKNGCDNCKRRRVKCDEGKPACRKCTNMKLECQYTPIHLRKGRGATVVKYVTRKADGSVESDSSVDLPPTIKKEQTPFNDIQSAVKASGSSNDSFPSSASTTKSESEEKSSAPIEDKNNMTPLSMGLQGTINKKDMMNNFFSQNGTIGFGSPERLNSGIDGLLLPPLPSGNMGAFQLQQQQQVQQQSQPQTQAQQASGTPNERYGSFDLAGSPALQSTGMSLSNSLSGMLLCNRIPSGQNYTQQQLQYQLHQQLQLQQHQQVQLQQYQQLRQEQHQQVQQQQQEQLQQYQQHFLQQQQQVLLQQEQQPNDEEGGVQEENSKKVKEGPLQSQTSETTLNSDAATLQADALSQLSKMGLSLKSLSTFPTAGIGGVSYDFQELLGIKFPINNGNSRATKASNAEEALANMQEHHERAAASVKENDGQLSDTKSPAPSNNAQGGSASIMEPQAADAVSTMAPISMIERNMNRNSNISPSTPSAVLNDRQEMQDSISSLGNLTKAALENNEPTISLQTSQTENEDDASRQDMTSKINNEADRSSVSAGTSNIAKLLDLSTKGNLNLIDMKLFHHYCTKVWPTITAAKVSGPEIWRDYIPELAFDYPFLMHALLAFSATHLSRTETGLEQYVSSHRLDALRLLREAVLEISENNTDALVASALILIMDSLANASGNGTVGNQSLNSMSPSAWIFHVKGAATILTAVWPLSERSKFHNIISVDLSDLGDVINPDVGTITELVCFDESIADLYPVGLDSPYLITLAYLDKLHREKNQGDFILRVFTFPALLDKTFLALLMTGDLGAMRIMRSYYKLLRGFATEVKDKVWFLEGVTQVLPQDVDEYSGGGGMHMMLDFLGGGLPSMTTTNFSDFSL

On to “ATGACTCA (double strand) [8-mer ATGACTCA]”, for which the results for the binding signal (PBM E-score (-0.5 to 0.5)) in data set [1] and in data set [2] were 0.495 and 0.499, respectively.

As for “GTCGTATA (double strand) [8-mer GTCGTATA]”, the binding signal (PBM E-score (-0.5 to 0.5)) in data set [3] turned out to be 0.497; in data set [4], 0.496.

Turning to “TAAACGAA (double strand) [8-mer TAAACGAA]”, the binding signal (PBM E-score (-0.5 to 0.5)) in data set [4] was 0.494.

For “ATGACTCC (double strand) [8-mer ATGACTCC]”, the binding signal (PBM E-score (-0.5 to 0.5)) in data set [1] was determined as 0.494; in data set [2] it was 0.493.

In data set [2], “ATGACTAC (double strand) [8-mer ATGACTAC]” came in with a binding signal (PBM E-score (-0.5 to 0.5)) of 0.494.

With “CTGAGTCA (double strand) [8-mer CTGAGTCA]”, the binding signal (PBM E-score (-0.5 to 0.5)) in data set [1] turned out to be 0.489; in data set [2], 0.496.

In the case of “AATGACTC (double strand) [8-mer AATGACTC]”, the binding signal (PBM E-score (-0.5 to 0.5)) in data set [2] was 0.495.

“GAGTCACC (double strand) [8-mer GAGTCACC]”: the values for the binding signal (PBM E-score (-0.5 to 0.5)) in data set [1] and in data set [2] were 0.491 and 0.496, respectively.

As for “GATGACTA (double strand) [8-mer GATGACTA]”, in data set [2], the binding signal (PBM E-score (-0.5 to 0.5)) turned out to be 0.495.

For “CTAAACGA (double strand) [8-mer CTAAACGA]”, the binding signal (PBM E-score (-0.5 to 0.5)) amounted to 0.493 in data set [3] and 0.496 in data set [4].

Take “TCGTTTAA (double strand) [8-mer TCGTTTAA]”: the binding signal (PBM E-score (-0.5 to 0.5)) came out at 0.494 in data set [3] and 0.497 in data set [4].

As to “GTGAGTCA (double strand) [8-mer GTGAGTCA]”, the binding signal (PBM E-score (-0.5 to 0.5)) came out at 0.494 in data set [1] and 0.498 in data set [2].

In the case of “TATACGAA (double strand) [8-mer TATACGAA]”, the results for the binding signal (PBM E-score (-0.5 to 0.5)) in data set [3] and in data set [4] were 0.494 and 0.495, respectively.

In the case of “ATGAGTCA (double strand) [8-mer ATGAGTCA]”, the values for the binding signal (PBM E-score (-0.5 to 0.5)) in data set [1] and in data set [2] were 0.492 and 0.498, respectively.

Regarding “CGTATACG (double strand) [8-mer CGTATACG]”, in data set [4], the binding signal (PBM E-score (-0.5 to 0.5)) is 0.494.

As for “CTCGTTTA (double strand) [8-mer CTCGTTTA]”, the binding signal (PBM E-score (-0.5 to 0.5)) in data set [3] and in data set [4] was 0.495 each time.

As for “GAGTCATA (double strand) [8-mer GAGTCATA]”, the binding signal (PBM E-score (-0.5 to 0.5)) is 0.484 in data set [1] and 0.495 in data set [2].

As for “CTCGTATA (double strand) [8-mer CTCGTATA]”, the binding signal (PBM E-score (-0.5 to 0.5)) in data set [3] turned out to be 0.498; in data set [4], 0.499.

For “GAGTCACA (double strand) [8-mer GAGTCACA]”, the binding signal (PBM E-score (-0.5 to 0.5)) in data set [1] is 0.487.

In data set [2], “ATGACTAA (double strand) [8-mer ATGACTAA]” displayed a binding signal (PBM E-score (-0.5 to 0.5)) of 0.494.

“GTCGTTTA (double strand) [8-mer GTCGTTTA]”: the binding signal (PBM E-score (-0.5 to 0.5)) in data set [4] came to 0.494.

In the case of “CTGACTCA (double strand) [8-mer CTGACTCA]”, the binding signal (PBM E-score (-0.5 to 0.5)) in data set [1] was 0.49; in data set [2] it was 0.494.

For “TCGTATAA (double strand) [8-mer TCGTATAA]”, the results for the binding signal (PBM E-score (-0.5 to 0.5)) in data set [3] and in data set [4] were 0.498 and 0.497, respectively.

Take “CATGACTC (double strand) [8-mer CATGACTC]”: the values for the binding signal (PBM E-score (-0.5 to 0.5)) in data set [1] and in data set [2] were 0.485 and 0.494, respectively.

Take “ATCGTTTA (double strand) [8-mer ATCGTTTA]”: in data set [4], the binding signal (PBM E-score (-0.5 to 0.5)) came out at 0.495.

Sequence “ATAAACGA (double strand) [8-mer ATAAACGA]” gave a binding signal (PBM E-score (-0.5 to 0.5)) in data set [4] of 0.494.

The sequence “AGTGACTC (double strand) [8-mer AGTGACTC]” came in with a binding signal (PBM E-score (-0.5 to 0.5)) in data set [1] of 0.481.

As for “GTATACGA (double strand) [8-mer GTATACGA]”, the binding signal (PBM E-score (-0.5 to 0.5)) in data set [3] was 0.492; in data set [4] it was 0.495.

Turning to “ATCGTATA (double strand) [8-mer ATCGTATA]”, the binding signal (PBM E-score (-0.5 to 0.5)) in data set [4] stood at 0.493.

Consider “GGAGTCAC (double strand) [8-mer GGAGTCAC]”, for which the binding signal (PBM E-score (-0.5 to 0.5)) in data set [1] is 0.485.

Sequence “CGGAGTCA (double strand) [8-mer CGGAGTCA]” showed a binding signal (PBM E-score (-0.5 to 0.5)) in data set [1] of 0.485.

For “GTGACTCA (double strand) [8-mer GTGACTCA]”, the binding signal (PBM E-score (-0.5 to 0.5)) is 0.496 in data set [1] and 0.498 in data set [2].

As to “CTATACGA (double strand) [8-mer CTATACGA]”, the values for the binding signal (PBM E-score (-0.5 to 0.5)) in data set [3] and in data set [4] were 0.496 and 0.498, respectively.

As for “GAGTCATC (double strand) [8-mer GAGTCATC]”, the figures for the binding signal (PBM E-score (-0.5 to 0.5)) in data set [1] and in data set [2] were 0.492 and 0.497, respectively.
